Test results taken from patent publication US5677146, “Human amyloid protein precursor homolog and kunitz-type inhibitor” (Zymogenetics, Inc., dated 1997).

Assays:
[1] = biological target: T1, human Factor XIIa (30 nM) (human, UniProt P00748); assay: cell-based or functional assay
T1 sequence 1: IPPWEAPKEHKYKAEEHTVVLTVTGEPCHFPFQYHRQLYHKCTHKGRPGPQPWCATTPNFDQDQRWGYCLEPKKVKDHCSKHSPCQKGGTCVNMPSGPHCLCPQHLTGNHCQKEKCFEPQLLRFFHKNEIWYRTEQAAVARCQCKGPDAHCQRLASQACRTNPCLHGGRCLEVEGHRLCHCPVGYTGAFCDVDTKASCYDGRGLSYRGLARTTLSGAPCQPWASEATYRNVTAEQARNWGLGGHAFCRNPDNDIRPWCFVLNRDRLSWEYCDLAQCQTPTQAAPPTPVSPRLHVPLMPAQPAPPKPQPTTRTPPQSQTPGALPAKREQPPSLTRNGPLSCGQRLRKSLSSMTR
T1 sequence 2: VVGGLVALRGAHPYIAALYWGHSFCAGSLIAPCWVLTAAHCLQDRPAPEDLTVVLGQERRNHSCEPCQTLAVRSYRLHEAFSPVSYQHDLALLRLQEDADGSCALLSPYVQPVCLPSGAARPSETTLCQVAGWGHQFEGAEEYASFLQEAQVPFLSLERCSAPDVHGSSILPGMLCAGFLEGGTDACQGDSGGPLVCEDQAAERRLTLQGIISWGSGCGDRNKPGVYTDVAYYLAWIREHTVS

human Factor XIa (1 nM) = human Factor XIa (1 nM) (human, UniProt P03951); assay: cell-based or functional assay
human Factor Xa (3 nM) = human Factor Xa (3 nM) (human, UniProt P00742); assay: cell-based or functional assay
[2] = biological target: recombinant human activated protein C (5 nM), Novo Nordisk A/S (human, UniProt P04070); assay: cell-based or functional assay
[3] = biological target: recombinant human Factor VIIa (300 nM), Novo Nordisk A/S (human, UniProt P08709); assay: cell-based or functional assay
bovine trypsin = bovine trypsin (bovine, UniProt P00760); assay: affinity chromatography of yeast supernatant on bovine trypsin coupled to CNBr-activated Sepharose

% Inhibition [1]: 8% | % Inhibition (human Factor XIa (1 nM)): 100% | % Inhibition (human Factor Xa (3 nM)): 29% | % Inhibition [2]: 1% | % Inhibition [3]: 7% | binding result (bovine trypsin): binds
B1: Kunitz-type inhibitor domain of the amyloid protein precursor (other)
chain: EVCSEQAETGPCRAMISRWYFDVTEGKCAPFFYGGCGGNRNNFDTEEYCMAVCGSA
